The target in one experiment is 14-3-3ε (UniProt P62258). Briefly: CFTR IP, 14-3-3ε immunoblot. The conditions noted are these: reference: basal cells; sites S660,S670,S700,S712,S737,S753,S768,S795,S813. (In general: Immunoblotting shows a protein as a band on a membrane.)
A further experiment deals with 14-3-3β (UniProt P31946). Nature of the experiment: CFTR IP, 14-3-3β immunoblot. The conditions noted are these: reference: basal cells; sites S660,S670,S700,S712,S737,S753,S768,S795,S813.

Regarding “CFTR (from UniProt P13569) forskolin 10 µM, 15 min”, the fold change with 14-3-3ε was determined as 3.1 fold; with 14-3-3β it was 2.3 fold.

The values above are taken from publication PMC3302758.
